The assay concerns steviol glycoside. Description: steviol glycoside bioconversion by E. coli expressing individual mutations of UGT SEQ ID NO: 14. The format is cell-based. As to conditions: fold improvement of % conversion vs parent UGT SEQ ID NO: 14; stevia leaf extract and glucose fed; 37° C., 48 hr. On the procedure:
Fold improvement is with respect to % steviol glycoside conversion of the parent UGT enzyme of SEQ ID NO: 14. The UGT enzyme of SEQ ID NO: 15 has the following mutations from SEQ ID NO: 14: ins_A2_T3_RR, H59P, A238E, L417F. Stevia leaf extract and glucose were fed to the bioconversion strains. Bioconversion took place at 37° C. for 48 hr. Data were quantified by reverse phase LC DAD to quantify conversion of steviol glycosides.
Fold improvement (FI) is with respect to % steviol glycoside conversion.

The values that follow come from patent US20260242839A1, “GLYCOSIDE PRODUCT BIOSYNTHESIS AND RECOVERY” (Manus Bio Inc., priority 2023, published 2026).

B1: A143W: mutation to UGT enzyme of SEQ ID NO: 14 (protein)
chain: MATKNSSGMSLAERFWLTLSRSSLVVGRSCVEFEPETVPLLSTLRGKPITFLGLMPPLHEGRREDGEDATVRWLDAQPAKSVVYVALGSEVPLGVEKVHELALGLELAGTRFLWALRKPTGVSDADLLPAGFEERTRGRGVVWTRWVPQMSILAHAAVGAFLTHCGWNSTIEGLMFGHPLIMLPITGDQGPNARLIEAKNAGLQVARNDGDGSFDREGVAAAIRAVAVEEESSKVFQAKAKKLQEIVADMACHERYIDGFIQQLRSYKDDSGYSSSYAAAAGMHVVICPWLAFGHLLPCLDLAQRLASRGHRVSFVSTPRNISRLPPVRPALAPLVAFVALPLPRVEGLPDGAESTNDVPHDRPDMVELHRRAFDGLAAPFSEFLGTACADWVIVDSFHHWAAAAALEHKVPCAMMLLGSAEMIASIADERLEHAETESPAAAGQGRPAAAPTFEVARMKLIR
For B1, the “FI %Stevioside→rebE” value stood at 1.3 and the “FI %rebA→rebD” value is on record as 1.3.

B2: C252R: mutation to UGT enzyme of SEQ ID NO: 14 (protein)
chain: MATKNSSGMSLAERFWLTLSRSSLVVGRSCVEFEPETVPLLSTLRGKPITFLGLMPPLHEGRREDGEDATVRWLDAQPAKSVVYVALGSEVPLGVEKVHELALGLELAGTRFLWALRKPTGVSDADLLPAGFEERTRGRGVVATRWVPQMSILAHAAVGAFLTHCGWNSTIEGLMFGHPLIMLPITGDQGPNARLIEAKNAGLQVARNDGDGSFDREGVAAAIRAVAVEEESSKVFQAKAKKLQEIVADMARHERYIDGFIQQLRSYKDDSGYSSSYAAAAGMHVVICPWLAFGHLLPCLDLAQRLASRGHRVSFVSTPRNISRLPPVRPALAPLVAFVALPLPRVEGLPDGAESTNDVPHDRPDMVELHRRAFDGLAAPFSEFLGTACADWVIVDSFHHWAAAAALEHKVPCAMMLLGSAEMIASIADERLEHAETESPAAAGQGRPAAAPTFEVARMKLIR
B2: the “FI %Stevioside→rebE” value came to 1.25 and the “FI %rebA→rebD” value came to 1.19.

B3: T186I: mutation to UGT enzyme of SEQ ID NO: 14 (protein)
chain: MATKNSSGMSLAERFWLTLSRSSLVVGRSCVEFEPETVPLLSTLRGKPITFLGLMPPLHEGRREDGEDATVRWLDAQPAKSVVYVALGSEVPLGVEKVHELALGLELAGTRFLWALRKPTGVSDADLLPAGFEERTRGRGVVATRWVPQMSILAHAAVGAFLTHCGWNSTIEGLMFGHPLIMLPIIGDQGPNARLIEAKNAGLQVARNDGDGSFDREGVAAAIRAVAVEEESSKVFQAKAKKLQEIVADMACHERYIDGFIQQLRSYKDDSGYSSSYAAAAGMHVVICPWLAFGHLLPCLDLAQRLASRGHRVSFVSTPRNISRLPPVRPALAPLVAFVALPLPRVEGLPDGAESTNDVPHDRPDMVELHRRAFDGLAAPFSEFLGTACADWVIVDSFHHWAAAAALEHKVPCAMMLLGSAEMIASIADERLEHAETESPAAAGQGRPAAAPTFEVARMKLIR
B3: the “FI %Stevioside→rebE” value was 1.48 and the “FI %rebA→rebD” value was found to be 1.24.

B4: V38F: mutation to UGT enzyme of SEQ ID NO: 14 (protein)
chain: MATKNSSGMSLAERFWLTLSRSSLVVGRSCVEFEPETFPLLSTLRGKPITFLGLMPPLHEGRREDGEDATVRWLDAQPAKSVVYVALGSEVPLGVEKVHELALGLELAGTRFLWALRKPTGVSDADLLPAGFEERTRGRGVVATRWVPQMSILAHAAVGAFLTHCGWNSTIEGLMFGHPLIMLPITGDQGPNARLIEAKNAGLQVARNDGDGSFDREGVAAAIRAVAVEEESSKVFQAKAKKLQEIVADMACHERYIDGFIQQLRSYKDDSGYSSSYAAAAGMHVVICPWLAFGHLLPCLDLAQRLASRGHRVSFVSTPRNISRLPPVRPALAPLVAFVALPLPRVEGLPDGAESTNDVPHDRPDMVELHRRAFDGLAAPFSEFLGTACADWVIVDSFHHWAAAAALEHKVPCAMMLLGSAEMIASIADERLEHAETESPAAAGQGRPAAAPTFEVARMKLIR
On to B4, for which the “FI %Stevioside→rebE” value is 1.33 and the “FI %rebA→rebD” value amounted to 1.19.

B5: Q244K: mutation to UGT enzyme of SEQ ID NO: 14 (protein)
chain: MATKNSSGMSLAERFWLTLSRSSLVVGRSCVEFEPETVPLLSTLRGKPITFLGLMPPLHEGRREDGEDATVRWLDAQPAKSVVYVALGSEVPLGVEKVHELALGLELAGTRFLWALRKPTGVSDADLLPAGFEERTRGRGVVATRWVPQMSILAHAAVGAFLTHCGWNSTIEGLMFGHPLIMLPITGDQGPNARLIEAKNAGLQVARNDGDGSFDREGVAAAIRAVAVEEESSKVFQAKAKKLKEIVADMACHERYIDGFIQQLRSYKDDSGYSSSYAAAAGMHVVICPWLAFGHLLPCLDLAQRLASRGHRVSFVSTPRNISRLPPVRPALAPLVAFVALPLPRVEGLPDGAESTNDVPHDRPDMVELHRRAFDGLAAPFSEFLGTACADWVIVDSFHHWAAAAALEHKVPCAMMLLGSAEMIASIADERLEHAETESPAAAGQGRPAAAPTFEVARMKLIR
As to B5, the “FI %Stevioside→rebE” value came out at 1.25 and the “FI %rebA→rebD” value is reported as 1.16.

B6: I427F: mutation to UGT enzyme of SEQ ID NO: 14 (protein)
chain: MATKNSSGMSLAERFWLTLSRSSLVVGRSCVEFEPETVPLLSTLRGKPITFLGLMPPLHEGRREDGEDATVRWLDAQPAKSVVYVALGSEVPLGVEKVHELALGLELAGTRFLWALRKPTGVSDADLLPAGFEERTRGRGVVATRWVPQMSILAHAAVGAFLTHCGWNSTIEGLMFGHPLIMLPITGDQGPNARLIEAKNAGLQVARNDGDGSFDREGVAAAIRAVAVEEESSKVFQAKAKKLQEIVADMACHERYIDGFIQQLRSYKDDSGYSSSYAAAAGMHVVICPWLAFGHLLPCLDLAQRLASRGHRVSFVSTPRNISRLPPVRPALAPLVAFVALPLPRVEGLPDGAESTNDVPHDRPDMVELHRRAFDGLAAPFSEFLGTACADWVIVDSFHHWAAAAALEHKVPCAMMLLGSAEMIASFADERLEHAETESPAAAGQGRPAAAPTFEVARMKLIR
Turning to B6, the “FI %Stevioside→rebE” value was 1.15 and the “FI %rebA→rebD” value stood at 1.24.

B7: T37S: mutation to UGT enzyme of SEQ ID NO: 14 (protein)
chain: MATKNSSGMSLAERFWLTLSRSSLVVGRSCVEFEPESVPLLSTLRGKPITFLGLMPPLHEGRREDGEDATVRWLDAQPAKSVVYVALGSEVPLGVEKVHELALGLELAGTRFLWALRKPTGVSDADLLPAGFEERTRGRGVVATRWVPQMSILAHAAVGAFLTHCGWNSTIEGLMFGHPLIMLPITGDQGPNARLIEAKNAGLQVARNDGDGSFDREGVAAAIRAVAVEEESSKVFQAKAKKLQEIVADMACHERYIDGFIQQLRSYKDDSGYSSSYAAAAGMHVVICPWLAFGHLLPCLDLAQRLASRGHRVSFVSTPRNISRLPPVRPALAPLVAFVALPLPRVEGLPDGAESTNDVPHDRPDMVELHRRAFDGLAAPFSEFLGTACADWVIVDSFHHWAAAAALEHKVPCAMMLLGSAEMIASIADERLEHAETESPAAAGQGRPAAAPTFEVARMKLIR
Regarding B7, the “FI %Stevioside→rebE” value is recorded as 1.35 and the “FI %rebA→rebD” value was determined as 1.17.

B8: T453F: mutation to UGT enzyme of SEQ ID NO: 14 (protein)
chain: MATKNSSGMSLAERFWLTLSRSSLVVGRSCVEFEPETVPLLSTLRGKPITFLGLMPPLHEGRREDGEDATVRWLDAQPAKSVVYVALGSEVPLGVEKVHELALGLELAGTRFLWALRKPTGVSDADLLPAGFEERTRGRGVVATRWVPQMSILAHAAVGAFLTHCGWNSTIEGLMFGHPLIMLPITGDQGPNARLIEAKNAGLQVARNDGDGSFDREGVAAAIRAVAVEEESSKVFQAKAKKLQEIVADMACHERYIDGFIQQLRSYKDDSGYSSSYAAAAGMHVVICPWLAFGHLLPCLDLAQRLASRGHRVSFVSTPRNISRLPPVRPALAPLVAFVALPLPRVEGLPDGAESTNDVPHDRPDMVELHRRAFDGLAAPFSEFLGTACADWVIVDSFHHWAAAAALEHKVPCAMMLLGSAEMIASIADERLEHAETESPAAAGQGRPAAAPFFEVARMKLIR
B8: the “FI %Stevioside→rebE” value is given as 1.32 and the “FI %rebA→rebD” value is on record as 1.20.

B9: R45F: mutation to UGT enzyme of SEQ ID NO: 14 (protein)
chain: MATKNSSGMSLAERFWLTLSRSSLVVGRSCVEFEPETVPLLSTLFGKPITFLGLMPPLHEGRREDGEDATVRWLDAQPAKSVVYVALGSEVPLGVEKVHELALGLELAGTRFLWALRKPTGVSDADLLPAGFEERTRGRGVVATRWVPQMSILAHAAVGAFLTHCGWNSTIEGLMFGHPLIMLPITGDQGPNARLIEAKNAGLQVARNDGDGSFDREGVAAAIRAVAVEEESSKVFQAKAKKLQEIVADMACHERYIDGFIQQLRSYKDDSGYSSSYAAAAGMHVVICPWLAFGHLLPCLDLAQRLASRGHRVSFVSTPRNISRLPPVRPALAPLVAFVALPLPRVEGLPDGAESTNDVPHDRPDMVELHRRAFDGLAAPFSEFLGTACADWVIVDSFHHWAAAAALEHKVPCAMMLLGSAEMIASIADERLEHAETESPAAAGQGRPAAAPTFEVARMKLIR
Turning to B9, the “FI %Stevioside→rebE” value turned out to be 1.35 and the “FI %rebA→rebD” value was 1.18.

B10: M250K_A251E_C252L: mutation to UGT enzyme of SEQ ID NO: 14 (protein)
chain: MATKNSSGMSLAERFWLTLSRSSLVVGRSCVEFEPETVPLLSTLRGKPITFLGLMPPLHEGRREDGEDATVRWLDAQPAKSVVYVALGSEVPLGVEKVHELALGLELAGTRFLWALRKPTGVSDADLLPAGFEERTRGRGVVATRWVPQMSILAHAAVGAFLTHCGWNSTIEGLMFGHPLIMLPITGDQGPNARLIEAKNAGLQVARNDGDGSFDREGVAAAIRAVAVEEESSKVFQAKAKKLQEIVADKELHERYIDGFIQQLRSYKDDSGYSSSYAAAAGMHVVICPWLAFGHLLPCLDLAQRLASRGHRVSFVSTPRNISRLPPVRPALAPLVAFVALPLPRVEGLPDGAESTNDVPHDRPDMVELHRRAFDGLAAPFSEFLGTACADWVIVDSFHHWAAAAALEHKVPCAMMLLGSAEMIASIADERLEHAETESPAAAGQGRPAAAPTFEVARMKLIR
As for B10, the “FI %Stevioside→rebE” value was determined as 1.40 and the “FI %rebA→rebD” value amounted to 1.23.
